Laboratory results as given in patent publication US5248605.

System: HpaII restriction endonuclease (R.HpaII) (Haemophilus parainfluenzae ATCC 49669)
Assay: cleavage_in_vitro
Details: IPTG-induced E. coli extract; 1x REact 8 buffer, 30 min 37 C; HpaII digest pattern on agarose gel

phage lambda DNA
activity (units per g wet cells): > 50000
